Data on nine variants can be found in the supplement of paper PMC7125110.

The chains are these.
B1: glmS ribozyme (parent)
chain: AUAAAAGCGCCAGAACUACAGAAAUGUAGUUGACGAGGAGGAGGUUUAUCGAAUUUUCGGCGGAUGCCUCCAAA

Settings in all cases: with glucosamine-6-phosphate
Series [1] covers variants of B1. As to the kind of experiment: kcat; higher = faster cleavage; RNA array. Put shortly: (§1)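 The measurements used barcoded ribozyme variants on sequenced MiSeq chips, transcribed in situ by E. coli RNA polymerase and tracked at 37 °C with a hybridised Cy3 probe. Glucosamine-6-phosphate, 40 μM to 10 mM in HEPES/KCl/Mg(OAc)2 buffer, was flowed in while tiles were imaged over ~14 h. Baseline-normalised signals, also normalised to non-cleaving reference variants, gave per-tile medians that were fit to one- or two-exponential decays for kobs. kcat and KM resulted from weighted Michaelis–Menten fits across concentrations.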

Variants of B1 are the subject of series [2]. As to the kind of experiment: KM; higher = weaker cofactor use; RNA array. Put shortly:
as §1

The variants in series [3] derive from B1. As to the kind of experiment: self-cleavage kobs at 40 uM GlcN6P; higher = faster cleavage; RNA array. Put shortly: as §1
The variants in series [4] derive from B1. As to the kind of experiment: self-cleavage kobs at 10000 uM GlcN6P; higher = faster cleavage; RNA array. Put shortly: as §1
Series [5] covers variants of B1. As to the kind of experiment: self-cleavage kobs at 2500 uM GlcN6P; higher = faster cleavage; RNA array. Put shortly: as §1
Variants of B1 are the subject of series [6]. As to the kind of experiment: self-cleavage kobs at 160 uM GlcN6P; higher = faster cleavage; RNA array. The method, boiled down: as §1
The variants in series [7] derive from B1. As to the kind of experiment: self-cleavage kobs at 640 uM GlcN6P; higher = faster cleavage; RNA array. The method, boiled down:
as §1

What is called kcat is the maximal rate divided by the concentration of active sites. A word on the KM: it is the concentration of substrate that gives half-maximal velocity.

± gives the standard error. For some of these results: Fewer inactive variants are shown than the library holds.

Turning to AUAAAAGCGCCAGAACUACAGAAAUGUAGUUGGCGAGGAGGAGGUUUAUCGAAUUUUCGGCGGGUGCCUCCAAA [A33G A64G], the catalytic constant (kcat) in the series with glucosamine-6-phosphate [1] was under 1e-05 s⁻¹. In the series with glucosamine-6-phosphate [2], the KM was 484 ± 28 µM. Moreover, the “self-cleavage kobs at 40 uM GlcN6P” value with glucosamine-6-phosphate [3] is under 1e-05 s⁻¹. For the same variant, the “self-cleavage kobs at 10000 uM GlcN6P” value with glucosamine-6-phosphate [4] was under 1e-05 s⁻¹.

As for AUAAAAGCGCCAGAAUUACAGAAAUGUAGUUGACGAGGAGGAGGUUUAUCGAAUUUUCGGCGAAUGCCUCCAAA [C16U G63A], the catalytic constant (kcat) with glucosamine-6-phosphate [1] is under 1e-05 s⁻¹. Also, in the series with glucosamine-6-phosphate [3], the “self-cleavage kobs at 40 uM GlcN6P” value was under 1e-05 s⁻¹. Further, in the series with glucosamine-6-phosphate [5], the “self-cleavage kobs at 2500 uM GlcN6P” value is under 1e-05 s⁻¹. Also, in the series with glucosamine-6-phosphate [4], the “self-cleavage kobs at 10000 uM GlcN6P” value was under 1e-05 s⁻¹.

For AUAAAGGCGCCAGAACUACAGAAAUGUAGUUGACGAGGAGGAGGUUUAUCGAAUAUUCGGCGGAUGCCUCCAAA [A6G U55A], the kcat with glucosamine-6-phosphate [1] came out at 0.00056 ± 6.3e-05 s⁻¹. For the same variant, the Michaelis constant (KM) with glucosamine-6-phosphate [2] came out at 1630 ± 370 µM. Moreover, in the series with glucosamine-6-phosphate [6], the “self-cleavage kobs at 160 uM GlcN6P” value worked out at 5.94e-05 ± 1.2e-05 s⁻¹. Moreover, in the series with glucosamine-6-phosphate [7], the “self-cleavage kobs at 640 uM GlcN6P” value is 0.000143 ± 1.7e-05 s⁻¹. Besides, the “self-cleavage kobs at 2500 uM GlcN6P” value with glucosamine-6-phosphate [5] was 0.000388 ± 4.1e-05 s⁻¹. The “self-cleavage kobs at 10000 uM GlcN6P” value with glucosamine-6-phosphate [4] was 0.000463 ± 4.3e-05 s⁻¹.

As for AUAAAAGCGCCAGAUCUACAGAAAUGUAGUUGACGAGGAGGAGGUUUCUCGAAUUUUCGGCGGAUGCCUCCAAA [A15U A48C], the catalytic constant (kcat) with glucosamine-6-phosphate [1] is 2.45e-05 ± 3.9e-06 s⁻¹.

Take AUAAAAGCGCCAGAAGUACAGAAAUGUAGUUGACGAGGAGGAGGUUUAUCGAAUUUUCGGCGGAUACCUCCAAA [C16G G66A]: in the series with glucosamine-6-phosphate [1], the kcat was determined as 0.00183 ± 0.0004 s⁻¹. Moreover, in the series with glucosamine-6-phosphate [2], the Michaelis-Menten constant (KM) is 1140 ± 380 µM. Moreover, the “self-cleavage kobs at 40 uM GlcN6P” value with glucosamine-6-phosphate [3] was found to be 7.41e-05 ± 1.1e-05 s⁻¹. Also, the “self-cleavage kobs at 160 uM GlcN6P” value with glucosamine-6-phosphate [6] is 0.000199 ± 5.6e-05 s⁻¹. Moreover, the “self-cleavage kobs at 640 uM GlcN6P” value in the series with glucosamine-6-phosphate [7] is 0.000593 ± 8.9e-05 s⁻¹. Also, in the series with glucosamine-6-phosphate [5], the “self-cleavage kobs at 2500 uM GlcN6P” value worked out at 0.00111 ± 0.00019 s⁻¹. Further, the “self-cleavage kobs at 10000 uM GlcN6P” value with glucosamine-6-phosphate [4] was determined as 0.00218 ± 0.00038 s⁻¹.

Take AUAAAAGCGUCAGAACUACAGAAAUGUAGUUGACGAGGAGGAGGUUUAUCGAAUUUUCGGCGGAUGCCUCGAAA [C10U C71G]: the kcat with glucosamine-6-phosphate [1] turned out to be 1.65e-05 ± 5.1e-06 s⁻¹. The “self-cleavage kobs at 40 uM GlcN6P” value with glucosamine-6-phosphate [3] was under 1e-05 s⁻¹.

In the case of AUAAAAGCGCCAGAACUACAGAAAUGUAUUUGACGAGGAGGAGGUUUAUCGAAUUUUCGGCGGAUGCCUCGAAA [G29U C71G], in the series with glucosamine-6-phosphate [1], the kcat is 0.000186 ± 4.6e-05 s⁻¹. Moreover, the “self-cleavage kobs at 40 uM GlcN6P” value with glucosamine-6-phosphate [3] is 3.23e-05 ± 9.4e-06 s⁻¹. For the same variant, the “self-cleavage kobs at 160 uM GlcN6P” value with glucosamine-6-phosphate [6] was found to be 6.19e-05 ± 9.3e-06 s⁻¹. The “self-cleavage kobs at 640 uM GlcN6P” value with glucosamine-6-phosphate [7] worked out at 8.34e-05 ± 7.2e-06 s⁻¹. Further, the “self-cleavage kobs at 2500 uM GlcN6P” value with glucosamine-6-phosphate [5] came out at 0.000186 ± 2.6e-05 s⁻¹. Also, the “self-cleavage kobs at 10000 uM GlcN6P” value in the series with glucosamine-6-phosphate [4] was 0.000186 ± 1.9e-05 s⁻¹.

As for AUAAAAGCGCCAGAACUACAGAAAUGUAGUUGACGAGGAGGAGGUUUAUCAAAUUUUCAGCGGAUGCCUUCAAA [G51A G59A C70U], the kcat with glucosamine-6-phosphate [1] was 1.55e-05 ± 3.5e-06 s⁻¹. Further, the “self-cleavage kobs at 40 uM GlcN6P” value with glucosamine-6-phosphate [3] was under 1e-05 s⁻¹. Also, the “self-cleavage kobs at 10000 uM GlcN6P” value in the series with glucosamine-6-phosphate [4] is under 1e-05 s⁻¹.

For AUAAAAGCGCCAGAACUACAGAAAUGUAGUUGACGAGGAGGAGGUUUAUCGAAUUUUCGGCGGGUGCCGCCAAA [A64G U69G], the catalytic constant (kcat) with glucosamine-6-phosphate [1] was 4.12e-05 ± 5.6e-06 s⁻¹. The “self-cleavage kobs at 640 uM GlcN6P” value in the series with glucosamine-6-phosphate [7] is 4.4e-05 ± 1.2e-05 s⁻¹. Moreover, the “self-cleavage kobs at 2500 uM GlcN6P” value with glucosamine-6-phosphate [5] worked out at 4.93e-05 ± 1.2e-05 s⁻¹. In addition, in the series with glucosamine-6-phosphate [4], the “self-cleavage kobs at 10000 uM GlcN6P” value stood at 3.35e-05 ± 8.6e-06 s⁻¹.
